Substrate in this series: C=CC(C)(C)c1[nH]c2cc(O)ccc2c1C[C@@H]1NC(=O)[C@@H]2CCCN2C1=O
Briefly: Michaelis-Menten kinetics, HPLC product detection. It counts as biochemical, Aspergillus sp. MF297-2. The note with it: normal prenylation at C-7 with DMAPP, 5 mM MgCl2, 50 mM Tris-Cl pH 7.5.

From paper PMC2941195 come the findings set out here.

B1: NotC (Aspergillus sp. MF297-2) (protein)
chain: MAIEEKSTSAEPGPYDALSRFSSLTGEDDRKWWEHTGPVLEKVMRDSGYELQSQYIYLYFVQQHLIPYLGKFPTRGQDDHRWQSNLTPYKVPYELSWNVSHKVVRISWDPVCDASGTENDAFNKKAIHDCTRQLAELDSTVILDRYRLLHKDLVITDEEEQQLLRRDVLPKSGRGQHNLAVDFQEGGITLKVYFYPYMKFLATGTPIEELFFSAIEKLRIADIDEAVGMLKCFLSPKSDDGKPSVDEKVFPSLLACDLCDPSKSRIKYYVIDKWVKWERIANLWTIGGRRLEDPYCAKGLALLKELWDLLAIPEGDRGDIWPNLVLGQPPTHLMTTIANYTLSPASRFPEPQVYLTTFGLNDMAIIDALTAFYERVGFTDMAKSYKKNVQSYYPNLDLNQTNWVHEAVSFSYRNSKPYLSVYYSPF
With B1, the Km (in general, the substrate concentration at which the rate is half of its maximum) was 2.64 ± 0.33 µM; the kcat (commonly the number of substrate molecules converted per active site and unit of time at saturation) is 1.01 ± 0.0317 s⁻¹.
